Measured values as given in patent publication US20250188136A1, “AV3 MUTANT POLYPEPTIDES FOR PEST CONTROL” (Vestaron Corporation, priority 2021, published 2025).
“And” between values parts separate entries of the source, which are not always exact repeats. Equal entries are not always repeated. “Also recorded” adds a separate entry of the source. Ends that are not written are not given here.

How the values were obtained:
[1] = Proteolytic resistance of Av3b mutants during production-strain fermentation (rpHPLC); type: physicochemical; conditions: for Degradation?: mutant strain fermentation at pH 6.5, 140 hours, rpHPLC; for degradation product during fermentation (HPLC): production strain fermentation at pH 6.5, rpHPLC
Description: The mutants in the table below were evaluated for stability in fermentation beer. Fermentation conditions and HPLC analysis were performed as described above. The mutant production strains were generated using YCT306 K. lactis strain. The production of mutants was performed as described in Example 2; fermentation conditions were performed using the same fermentation process described above regarding the Av3b production strain, with pH control at pH 6.5. […] To identify the mutant with proteolytic resistance, the mutant strains were grown under the same fermentation conditions as Av3b, and samples were taken throughout the fermentation process. The samples taken at 140 hour of fermentation process were analyzed in rpHPLC.

[2] = DASbox small-scale fermentation, degradation by HPLC and LC/MS; type: physicochemical; conditions: DASbox fed batch fermentation runs
Description: DASbox® is a parallel bioreactor system (Eppendorf, 175 Freshwater Blvd, Enfield, CT 06082, USA). The DASbox system used here contains 8 fermentation vessels with 250 mL volume capacity, allowing 8 small scale fermentation runs simultaneously. The DASbox fermentation runs were performed according to the manufacturer's instructions, and using the fermentation conditions described herein.
The screening of the Av3b mutants was conducted using a fed batch process in aerobic bioreactor. Reactors were initially filled to ˜45% capacity with a rich culture media containing 5-20 g/L of a carbon source such as glucose, sorbitol, or lactose, 5-20 g/L phosphoric acid, 0.1-1.5 g/L Calcium sulfate, 5-15 g/L Potassium sulfate, 0.5-10 g/L Magnesium sulfate heptahydrate, 1-5 g/L potassium hydroxide, and 10-60 g/L of corn steep liquor. The temperature of the reactor was maintained between 25-35° C. for the duration of the fermentation. The pH was held constant between 4-5.5 with the addition of 15% ammonium hydroxide. Dissolved oxygen was held constant by sparging air between 0.5-1.5 volume/volume/min and by increasing agitation to maintain a set point of 10-30%.
Inoculation of the reactor was from an overnight seed culture containing 5-40 g/L of a carbon source such as glucose, sorbitol, or lactose, and 5-40 g/L of corn steep liquor. Inoculation percentage ranged from 5-20% of initial fill volume. Once inoculated, the reactor was fed with a 70% solution of the selected carbon source until the reactor was filled and/or desired supernatant peptide concentration was achieved, approximately 96-140 hours and 0.8-1.2 g/L, respectively.

Helicoverpa zea = experiment: Lepidoptera injection assay, corn earworm (CEW); type: in vivo; conditions: for KD50 CEW: third instar larva, 2 μL injection, scored at 24-hours post-injection; for knock-down effects compared to Av3b: CEW and FAW injection, KD50
Description: (§1) An injection assay was performed on Helicoverpa zea (corn earworm or “CEW”) and Spodoptera frugiperda (fall armyworm or “FAW”). Injections comprised a given Av3b mutant peptide combined with water to arrive at the planned dose. The Av3b mutants included Av3bM24; Av3bM165; Av3bM103; and Av3bM170. Av3b was used as a control.
(§2) Insects were reared on an artificial diet prepared from General Purpose Lepidoptera diet (Frontier Scientific, Newark, DE 19713, product No. F9772) according to the manufacturer's instructions. To perform the insect injection bioassay, 5 mL of hot diet was dispensed into the well of a rearing tray (Bio-Service Inc., Bio-RT-32), with 8 wells per injection treatment. The hot diet was then allowed to cool and solidify. Next, third instar larva were incubated on ice in order to immobilize them. Injections were prepared on a hand-microapplicator with injection solution (>100 μL) in 1-cc all-glass syringe having a 30 gauge straight needle. Air bubbles were removed from the syringe, and the syringe was set it up on the microapplicator. Injection volume was adjusted in the microapplicator at 2 μL.
(§3) To inject the larva, the insects were picked up and positioned close to the injection needle. The needle was allowed to penetrate the cuticle of the third pro-leg of the larva. The injection knob of the microapplicator was then rotated to inject a 2 μL solution into hemolymph from the third pro-leg. After injection the larva maintained on the needle for a few seconds to make sure the injected solution was absorbed. Then, the larva were gently removed from the needle and placed into the wells of prepared tray, along with 5 mL of solidified diet per well. Finally, the tray was sealed with vent covers.
(§4) Injected larva were incubated at 28° C. in an insect incubator, and scored at 24-hours post-injection based on their condition. Insect conditions were categorized as follows: alive (walking, eating, normal behavior); affected (showing toxic symptoms, such as tremors, writhing, unbalanced gait, or a combination thereof), knockdown (paralyzed albeit able to move with gentle poke); and dead (unmoving, discoloration, or a combination thereof).

Spodoptera frugiperda = experiment: Lepidoptera injection assay, fall armyworm (FAW); type: in vivo; conditions: third instar larva, 2 μL injection, scored at 24-hours post-injection
Description: as §1, §2, §3, §4

[3] = Circular dichroism assay, melting temperature; type: physicochemical; conditions: 10 mM Na3PO4 solution, pH 5.9; 20° C. to 98° C.
Description: A JASCO J-1500 CD spectrometer (JASCO, 28600 Mary's Court, Easton, MD 21601 USA) was used to measure the CD spectrum and the secondary structure information of the Av3bM24, Av3bM165, Av3bM103, and Av3bM170 peptides (with Av3b as a comparator). The peptides were prepared in 10 mM Na3PO4 solution, pH 5.9, and loaded into the cuvette for CD spectrum measurement. Measurements were processed with a light wavelength scan ranging from 180 nm to 250 nm, with a 1 nm interval; the temperature graduate changed from 20° C. to 98° C., with 2° C. interval.

[4] = Thermo-stability at 54° C. in pH 4.0 solution; type: physicochemical; conditions: for peptide change on day 14: pH 4.0, 54° C., HPLC peak area, + mass increase, − mass loss; for thermo-stability at 54° C.: pH 4.0 solution, up to 14 days
Description: A thermo-stability study was performed for Av3b, Av3bM24, Av3bM165, Av3bM103, and Av3bM170 in a pH 4.0 solution at 54° C. for 0, 3, 7, 10, 12, and 14 days, with a caffeine internal control to cancel variation from evaporation. Samples of 1 mL were prepared in 1.5 mL microtube with sodium acetate buffer (NaOAc) at pH 4.0, containing 0.1 μg/μL of peptide, and 0.025 μg/μL of caffeine. The samples were incubated at 54° C. in a dry mixer. At 0, 3, 7, 10, 12, and 14 days, 20 μL of each sample was analyzed via analytic rpHPLC system to evaluate peptide loss. Each sample contained a fixed amount caffeine, which was used to compensate the peptide HPLC UV absorbance peak change due to volume change by evaporation. FIG. 68.

[5] = Stability of purified peptide spiked into Av3b fermentation beer (rpHPLC); type: physicochemical
Description: To determine the stability of the new mutants, Av3bM19, Av3bM23, Av3bM24, Av3bM25, Av3bM27, and Av3bM28 were purified and incubated in Av3b fermentation beer. The mutants were purified by cation-exchange chromatography using a GE SP-Sephadex C-25 column. The column was first calibrated with 30 mM sodium citrate buffer at pH 3.0. Then, the culture supernatant containing the secreted mutant peptide was loaded into the column to let the mutant peptide bind to the resin. The column was then washed with 30 mM sodium citrate buffer, pH 3.0, followed by washing with 30 mM sodium acetate, pH 4.0. Next, the bound mutant peptide was eluted by 1 M or 2 M NaCl with 30 mM sodium acetate, pH 4.0. The elution was then concentrated and buffer-exchanged to 30 mM sodium acetate, pH 4.0 using a 1 kD cutoff spin concentrator.
After purification, each of the mutants, Av3bM19, Av3bM23, Av3bM24, Av3bM25, Av3bM27, and Av3bM28, were evaluated for stability by spiking them into Av3b strain fermentation beer at pH 6.5. As a negative control, Av3b was evaluated in a pH 4.0 buffer. As a positive control, purified Av3b was evaluated by spiking into the same Av3b fermentation beer at pH 6.5. All stability experiments were performed at room temperature. […] The amount of peptide remaining relative to the beginning was determined by normalizing the peak area at different time to the one at 0 hour for each treatment. The degradation trend is visualized by the bar graph of the relative remaining peptide amount trend.

[6] = Stability of Av3b mutants in insect gut extract; type: in vitro ADME, Helicoverpa zea; conditions: H. zea gut extract, room temperature
Description: To test the stability of the Av3b mutants in the gut enzymes of a lepidopteran pest, the gut extract were prepared from Helicoverpa zea (Corn Earworm or “CEW”). Corn Earworm insects were obtained commercially from Benzon Research (Carlisle, PA) as eggs. Hatched larvae were raised on artificial diet until ⅘^th instar (20 mm long) before guts were isolated. Before gut extraction, larvae were anesthetized using CO2. The larva was then pinned on the dissection plate at both the head and the tail. Using dissection scissors, the cuticle was nicked. The dissection scissors were then inserted into the nick and the […] along the insect. The cuticle was then carefully pulled back and pinned open to reveal the digestive track. Using DI water, the insect was thoroughly rinsed to remove hemolymph.
After the insect guts were extracted from the larva, they were spun at 15000 rpm for 5 minutes. The resulting supernatant is the “insect gut extract” that was used to determine peptide stability. Av3b mutant peptide was mixed with the gut extract to […] of 2 μg/μL, and incubated at room temperature. At time points between 0-100 hours, 6 μL of a given sample was mixed with 93 μL dH2O followed by the addition of 1 μL of a 2% trifluoracetic acid solution to stop the reaction. The sample was then analyzed by rpHPLC to determine the peptide loss during the gut extract treatment.

Sequence | Degradation? [1] | degradation product during fermentation (HPLC) [1] | degradation detected via HPLC and LC/MS [2] | KD50 CEW (Helicoverpa zea) | KD50 FAW (Spodoptera frugiperda) | CD Melting temperature [3] [°C] | peptide change on day 14 [4] | thermo-stability at 54° C. [4] | knock-down effects compared to Av3b (Helicoverpa zea) | time stable in solution at 54° C. ([4]; pH 4 NaOAc buffer, 54° C.) [days] | half-degradation time ([5]; Av3b production fermentation beer pH 6.5, room temperature (Example 11, FIG. 37)) | half-degradation time ([5]; Av3b production fermentation beer pH 6.5, room temperature (Example 12, FIG. 39)) | peptide remaining ([5]; fermentation beer pH 6.5, room temperature, 248 hours, HPLC peak area relative to starting amount) [%] | stability of peptide in pH 4 buffer (negative control) ([5]; pH 4 buffer, room temperature) | half conversion time to Av3b peptide [6] [min]
KSCCPCYWGGCPWGQNCYPEGCGGPG [Av3bM170] | No | did not show any degradation product | degradation was not detected | 104 pmol/g | 495±148 pmol/g and 495 ± 148 (N = 2) pmol/g | 70 | +4.6% | thermo-stable |  |  |  |  |  |  | 
KSCCPCYWGGCPWGQNCYPEGCSGPG (ends and bridges not checked; cysteine pairing not given here) [Av3bM103] | No | did not show any degradation product; also recorded: prevent degradation | degradation was not detected | 518 ± 390 (N = 2) pmol/g | 879 pmol/g | 82 | −64.1% | not thermo-stable | comparable knock-down effects to Av3b | 7 |  |  |  |  | 
KSCCPCYWGGCPWGQNCYPEGCSGPK [Av3b, reference compound] |  | showed degradation during fermentation | degradation was detected | 367 ± 166 (N = 6) pmol/g | 883 ± 25 (N = 2) pmol/g | 69.3 | +8.3% | thermo-stable |  |  | 46 h and 46.34 h | 56 h and 56.087 h | 3.8 | no loss of the peptide; also recorded: stable in pH 4 buffer | 
KSCCPCYWGGCPWGQNCYPEGCSGPKVG [Av3bM165] | No | did not show any degradation product; also recorded: without apparent degradation products | degradation was not detected | 389 pmol/g | 578 pmol/g | 80 | +4.2% | thermo-stable | comparable knock-down effects to Av3b |  |  |  |  |  | 5.3
